According to the supplement of paper PMC11136658:

System: peptide library, one residue held at a place counted from the Y acceptor
Assay: relative phosphorylation of the sub-library (ratio to the mean residue at this position); higher = residue favoured
How it was run: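 Every value reflects phosphorylation relative to the mean randomized residue. The sum of the 18 randomized residues, or 16 in the Ser/Thr-free library, served to normalize intensities at each position, which were then multiplied by that number. Intensities came from phosphorimaging with ImageQuant of biotinylated Tyr-centred peptides captured on streptavidin membranes after 90 min with purified recombinant kinases and 50 μM ATP plus γ-32P-ATP.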

Chain of CSF1R, construct: aa539-end, human (P07333 539-972, looked up): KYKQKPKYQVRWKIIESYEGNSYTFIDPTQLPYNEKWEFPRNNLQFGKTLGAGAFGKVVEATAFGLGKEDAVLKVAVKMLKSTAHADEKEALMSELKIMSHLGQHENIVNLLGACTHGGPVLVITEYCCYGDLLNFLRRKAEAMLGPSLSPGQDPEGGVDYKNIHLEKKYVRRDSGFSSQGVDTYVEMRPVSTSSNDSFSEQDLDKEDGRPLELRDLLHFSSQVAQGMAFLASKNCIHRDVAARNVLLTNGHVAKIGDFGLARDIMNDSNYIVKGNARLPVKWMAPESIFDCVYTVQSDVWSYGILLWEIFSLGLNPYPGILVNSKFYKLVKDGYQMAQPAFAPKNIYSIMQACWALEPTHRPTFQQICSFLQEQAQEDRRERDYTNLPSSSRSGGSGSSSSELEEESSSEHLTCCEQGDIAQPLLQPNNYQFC
Chain of BTK, construct: Full length, human (Q06187 whole entry, looked up): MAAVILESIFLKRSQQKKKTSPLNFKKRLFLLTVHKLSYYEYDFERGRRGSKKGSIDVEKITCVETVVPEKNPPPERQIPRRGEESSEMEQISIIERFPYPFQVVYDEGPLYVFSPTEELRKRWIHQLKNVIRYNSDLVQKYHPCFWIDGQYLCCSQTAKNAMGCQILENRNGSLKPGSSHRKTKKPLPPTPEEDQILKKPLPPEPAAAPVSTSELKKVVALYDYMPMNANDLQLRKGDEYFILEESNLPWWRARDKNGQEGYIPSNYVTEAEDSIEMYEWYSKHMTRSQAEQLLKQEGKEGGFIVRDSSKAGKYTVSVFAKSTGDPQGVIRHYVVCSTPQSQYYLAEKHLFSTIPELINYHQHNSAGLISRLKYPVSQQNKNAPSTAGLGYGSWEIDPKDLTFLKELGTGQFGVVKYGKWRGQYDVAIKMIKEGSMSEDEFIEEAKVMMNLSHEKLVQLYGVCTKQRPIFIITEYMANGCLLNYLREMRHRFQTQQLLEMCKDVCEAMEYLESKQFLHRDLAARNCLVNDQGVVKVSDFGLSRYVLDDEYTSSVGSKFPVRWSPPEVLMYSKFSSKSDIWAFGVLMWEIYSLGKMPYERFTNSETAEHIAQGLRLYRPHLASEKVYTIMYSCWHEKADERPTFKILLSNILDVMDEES
Chain of CSK, construct: Full length, human (P41240 whole entry, looked up): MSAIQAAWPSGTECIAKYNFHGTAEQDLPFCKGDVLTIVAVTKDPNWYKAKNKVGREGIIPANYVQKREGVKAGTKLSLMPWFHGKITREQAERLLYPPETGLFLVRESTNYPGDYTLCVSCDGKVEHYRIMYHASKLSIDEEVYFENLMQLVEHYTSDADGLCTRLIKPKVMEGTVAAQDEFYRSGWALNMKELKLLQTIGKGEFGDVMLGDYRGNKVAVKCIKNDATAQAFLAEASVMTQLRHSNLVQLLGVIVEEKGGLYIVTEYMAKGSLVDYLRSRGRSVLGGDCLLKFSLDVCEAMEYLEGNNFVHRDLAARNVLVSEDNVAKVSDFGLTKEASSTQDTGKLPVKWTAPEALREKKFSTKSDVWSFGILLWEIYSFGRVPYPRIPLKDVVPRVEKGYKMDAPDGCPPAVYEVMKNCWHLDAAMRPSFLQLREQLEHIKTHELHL

BTK, construct: Full length, human (from UniProt Q06187)
relative phosphorylation
Conditions	at +1	at +2	at +3	at +4	at +5	at -1	at -2	at -3	at -4	at -5
A fixed	1.39	0.87	1.06	0.754	0.911	0.443	0.964	0.709	1.04	0.982
D fixed	0.67	0.561	0.345	0.63	0.755	0.375	1.14	1.22	1.19	1.1
E fixed	1.36	1.13	0.302	0.661	0.676	0.416	1.24	1.71	1.41	0.914
F fixed	0.954	1.32	1.41	1.1	1.46	1.97	0.934	1.43	1.13	1.21
G fixed	1.1	0.546	0.759	0.928	0.941	0.308	1.04	0.779	1.03	1.01
H fixed	0.657	0.679	0.995	1.02	0.909	1.3	0.871	1	0.984	1.02
I fixed	1.17	1.19	1.42	1.01	0.796	2.79	0.874	0.799	1.01	1.04
K fixed	0.398	0.873	1.01	1.17	1.05	0.294	0.708	0.644	0.736	0.884
L fixed	1.03	0.884	0.801	0.915	1.05	2.9	1.3	0.812	1.1	0.941
M fixed	1.43	1.05	0.925	1.38	1.24	1.55	0.796	1.11	1.03	1.18
N fixed	0.466	0.827	0.886	0.779	0.949	0.589	1.21	1.1	0.823	1.17
P fixed	0.181	0.636	0.553	0.772	1.23	0.526	1.19	0.967	1.03	0.99
Q fixed	0.963	0.923	0.722	1.07	0.816	0.486	0.966	0.892	1.01	0.937
R fixed	0.524	1.26	1.62	1.53	1.25	0.279	0.771	0.729	0.964	0.985
S fixed	0.888	1.05	1.14	0.749	0.755	0.375	1.15	0.814	0.725	0.766
T fixed	0.812	1.27	0.946	0.917	0.816	0.788	0.868	0.745	0.658	0.769
V fixed	1.58	1.27	1.3	0.944	0.892	1.55	1.07	0.838	0.926	0.965
W fixed	2.42	1.67	1.8	1.68	1.5	1.06	0.902	1.7	1.21	1.14
pThr fixed	1.09	1.45	0.357	0.523	0.47	0.911	1.01	0.846	0.896	0.954
pTyr fixed	1.22	1.58	0.433	0.603	0.684	1.26	1.14	1.15	1.26	1.09

CSF1R, construct: aa539-end, human (from UniProt P07333)
relative phosphorylation
Conditions	at +1	at +2	at +3	at +4	at +5	at -1	at -2	at -3	at -4	at -5
A fixed	0.891	0.881	0.64	0.958	0.873	0.884	1.16	1.02	1.07	1.09
D fixed	0.331	0.636	0.32	0.718	0.844	1.13	1.11	1.36	1.3	1.14
E fixed	0.638	0.924	0.246	0.784	0.832	1.06	1.17	1.77	1.47	1.06
F fixed	1.89	1.09	1.97	1.27	0.977	1.04	0.617	0.741	0.821	0.963
G fixed	0.444	0.508	0.633	1.15	1.43	0.656	1.22	1.27	1.23	1.2
H fixed	1.74	0.993	0.863	1.15	1.05	1.77	0.992	0.973	0.923	1
I fixed	1.67	1.04	2.14	0.891	0.781	1.62	0.834	0.63	0.846	0.783
K fixed	0.674	0.951	0.632	1.01	1.05	0.535	0.751	0.731	0.878	0.98
L fixed	1.3	1.21	1.93	0.874	0.689	1.23	0.952	0.763	0.858	0.817
M fixed	1.2	1.05	1.67	1.06	0.927	0.91	0.757	0.755	0.863	0.909
N fixed	0.512	0.965	0.523	0.975	1.08	1.15	1.16	1.21	0.936	1.12
P fixed	0.565	0.847	1.13	0.922	1.34	1.05	1.6	1.17	1.34	1.29
Q fixed	0.973	0.989	0.519	0.965	0.931	0.919	1.03	1.07	0.921	0.93
R fixed	0.745	1.31	0.929	1.36	1.2	0.474	0.844	0.786	0.782	0.871
S fixed	0.721	0.893	0.604	1.02	1.24	0.687	1.2	1.14	0.97	1.03
T fixed	0.938	1.11	0.856	1.04	1.07	1.08	1.08	1.12	0.899	1.01
V fixed	1.56	1.11	1.47	0.851	0.756	1.12	0.939	0.748	0.866	0.859
W fixed	1.2	1.49	0.91	1.01	0.928	0.678	0.575	0.745	1.02	0.943
pThr fixed	0.739	1.17	0.232	0.432	0.567	1.02	0.996	1.2	1.12	0.956
pTyr fixed	1.61	1.25	0.341	0.698	0.773	1.87	1.01	1.11	1.16	1

CSK, construct: Full length, human (from UniProt P41240)
relative phosphorylation
Conditions	at +1	at +2	at +3	at +4	at +5	at -1	at -2	at -3	at -4	at -5
A fixed	1.41	0.875	0.728	0.981	1.32	0.815	1.34	0.852	1.16	1.05
D fixed	0.482	1.38	0.566	1.08	0.834	0.976	0.757	1.29	1.3	1.07
E fixed	0.852	1.46	0.505	1.36	0.948	1.78	0.958	2.98	1.99	1.16
F fixed	1.31	1.36	2.01	1.1	1.07	1.38	0.554	0.79	1.12	1.37
G fixed	0.515	0.485	0.648	1.17	1.14	0.362	1.07	0.915	1.23	1.15
H fixed	1.03	0.914	0.901	1.22	1.13	1.2	0.684	0.839	0.869	0.994
I fixed	1.71	1.07	2.04	0.759	0.869	2.44	1.14	0.774	0.913	1.05
K fixed	0.4	0.606	0.389	0.815	0.684	0.472	0.659	0.867	0.812	0.748
L fixed	1.13	1.08	1.07	0.746	1.02	1.24	0.761	0.763	0.86	1.07
M fixed	1.1	0.839	1.01	1.06	0.937	0.9	0.558	0.832	0.866	1.01
N fixed	0.362	1.06	0.509	0.875	0.974	0.679	0.765	0.901	0.705	0.845
P fixed	0.23	0.59	1.02	1.08	1.39	0.395	2.04	0.944	1.03	1.01
Q fixed	0.988	0.791	0.607	0.992	0.954	0.691	0.952	0.772	1.07	0.839
R fixed	0.524	0.757	0.46	0.859	0.717	0.409	0.738	0.976	0.758	0.735
S fixed	0.787	0.978	0.734	0.868	1.14	0.533	1.47	0.958	0.826	0.943
T fixed	0.803	0.829	0.689	0.879	1.07	0.926	1.16	0.918	0.715	0.897
V fixed	1.67	1.03	1.6	0.831	0.769	1.65	1.81	0.769	0.778	0.831
W fixed	2.7	1.9	2.52	1.34	1.03	1.16	0.576	0.859	1.01	1.22
pThr fixed	1.23	1.87	0.582	1.12	0.922	1.02	0.787	1.35	1.03	1.02
pTyr fixed	3.21	7.03	1.05	1.36	1.64	4.72	1.71	2.14	2.83	1.74
